Target: Q13093
Test: estimated from residual CAM activity after 10 days at 4 C against enzyme concentration (dilution inactivation); self-association

B1: recombinant lipoprotein-associated phospholipase A2 (rLp-PLA2) expressed in HEK293 cells (protein)
chain: FDWQYINPVAHMKSSAWVNKIQVLMAAASFGQTKIPRGNGPYSVGCTDLMFDHTNKGTFLRLYYPSQDNDRLDTLWIPNKEYFWGLSKFLGTHWLMGNILRLLFGSMTTPANWNSPLRPGEKYPLVVFSHGLGAFRTLYSAIGIDLASHGFIVAAVEHRDRSASATYYFKDQSAAEIGDKSWLYLRTLKQEEETHIRNEQVRQRAKECSQALSLILDIDHGKPVKNALDLKFDMEQLKDSIDREKIAVIGHSFGGATVIQTLSEDQRFRCGIALDAWMFPLGDEVYSRIPQPLFFINSEYFQYPANIIKMKKCYSPDKERKMITIRGSVHQNFADFTFATGKIIGHMLKLKGDIDSNVAIDLSNKASLAFLQKHLGLHKDFDQWDCLIEGDDENLIPGTNINTTNQHIMLQNSSGIEKYN
- concentration at which half is monomer and half aggregate or oligomer: At the concentration at 2.5 µg/ml or 53 nM, roughly half of rLp-PLA2 is in monomer and half forms the aggregate or oligomer as estimated

Source: US20150086999
